Experimental data taken from paper PMC7021315.

Legend:
[1] = target: recombinant Zika virus E protein (soluble E, lacking the stem-anchor region) (Zika virus); assay: SEC; Superdex 200 Increase 3.2/300 column, ÄKTA FPLC, TAN buffer pH 8.0
[2] = target: recombinant Zika virus E protein (soluble E, lacking the stem-anchor region) (Zika virus); assay: rate zonal ultracentrifugation in sucrose gradients; 3-5 ug E protein on sucrose gradients, 20 h at 38,000 rpm, 15°C, Beckman SW40 rotor; fractions quantified by ELISA (Strep-Tactin capture, mab A1 detection)

Q: For “recombinant Zika virus E protein (soluble E, lacking the stem-anchor region) (domain or fragment)”, which stoichiometry N [1] is on record?
A: 2

Q: What about the stoichiometry N [2] of the same substance?
A: 2
